# Assay results published in USRE48267E1, “Variants of C-type natriuretic peptide” (priority 2009, dated 2020).
# Bridges are numbered along the chain shown (N, C = ends). Where no end group is shown, it is not given here. The star is where a group is joined. Heptanoyl = CCCCCCC(=O)*
# T1: NPR-B (natriuretic peptide receptor B), murine, expressed endogenously on NIH3T3 cells (murine, UniProt Q6VVW5 17-1047)
# T1 sequence (looked up): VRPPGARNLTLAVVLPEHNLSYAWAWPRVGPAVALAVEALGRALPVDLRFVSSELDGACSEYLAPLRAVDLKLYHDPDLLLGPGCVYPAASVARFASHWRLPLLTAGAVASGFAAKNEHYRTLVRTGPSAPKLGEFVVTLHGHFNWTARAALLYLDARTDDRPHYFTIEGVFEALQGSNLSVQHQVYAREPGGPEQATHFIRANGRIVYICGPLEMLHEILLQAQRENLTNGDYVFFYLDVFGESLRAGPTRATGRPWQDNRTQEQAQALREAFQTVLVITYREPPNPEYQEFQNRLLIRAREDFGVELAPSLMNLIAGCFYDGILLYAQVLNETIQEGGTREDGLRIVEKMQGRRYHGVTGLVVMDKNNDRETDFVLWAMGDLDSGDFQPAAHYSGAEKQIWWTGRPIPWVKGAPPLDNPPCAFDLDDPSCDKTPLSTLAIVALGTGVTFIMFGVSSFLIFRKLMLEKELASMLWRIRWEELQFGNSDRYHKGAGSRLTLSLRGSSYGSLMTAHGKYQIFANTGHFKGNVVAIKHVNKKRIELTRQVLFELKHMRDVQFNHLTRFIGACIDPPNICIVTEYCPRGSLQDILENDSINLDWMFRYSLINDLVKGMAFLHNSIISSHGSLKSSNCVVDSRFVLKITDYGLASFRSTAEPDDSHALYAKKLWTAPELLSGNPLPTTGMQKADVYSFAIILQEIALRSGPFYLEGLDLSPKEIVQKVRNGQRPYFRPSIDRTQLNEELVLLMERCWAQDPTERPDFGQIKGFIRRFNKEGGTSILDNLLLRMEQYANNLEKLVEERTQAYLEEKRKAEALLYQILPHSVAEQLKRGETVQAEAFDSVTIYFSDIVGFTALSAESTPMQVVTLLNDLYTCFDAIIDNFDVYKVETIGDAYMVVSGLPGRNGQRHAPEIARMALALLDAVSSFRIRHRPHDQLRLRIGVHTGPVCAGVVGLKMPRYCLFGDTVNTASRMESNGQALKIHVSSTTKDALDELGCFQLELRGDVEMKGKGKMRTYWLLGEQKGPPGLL
# Target: T1, NPR-B (natriuretic peptide receptor B), …
# Assay: cell-based or functional assay
Binder,"cGMP response rel. to 1 uM CNP22; 10 nM peptide, NIH3T3 cells","cGMP response rel. to 1 uM CNP22; 1 uM peptide, NIH3T3 cells"
"Heptanoyl-ELSKGCFGLKLDRIGSMSGLGC (ends and bridges not checked) [Heptanoic acid (N-term.)-CNP22, G1E]",32 rel. to 1 uM CNP22 (100),84 rel. to 1 uM CNP22 (100)
"RGLSRGCFGLKLDRIGSMSGLGC [R-CNP22, K4R]",54 rel. to 1 uM CNP22 (100),106 rel. to 1 uM CNP22 (100)
"ERGLSRGCFGLKLDRIGSMSGLGC [ER-CNP22, K4R]",38 rel. to 1 uM CNP22 (100),113 rel. to 1 uM CNP22 (100)
"GANRRGLSRGCFGLKLDRIGSMSGLGC [GANRR-CNP22, K4R]",59 rel. to 1 uM CNP22 (100),105 rel. to 1 uM CNP22 (100)
"GANQQGLSRGCFGLKLDRIGSMSGLGC [GANQQ-CNP22, K4R]",44 rel. to 1 uM CNP22 (100),95 rel. to 1 uM CNP22 (100)
"GANPRGLSRGCFGLKLDRIGSMSGLGC [GANPR-CNP22, K4R]",50 rel. to 1 uM CNP22 (100),105 rel. to 1 uM CNP22 (100)
"GANSSGLSRGCFGLKLDRIGSMSGLGC [GANSS-CNP22, K4R]",27 rel. to 1 uM CNP22 (100),88 rel. to 1 uM CNP22 (100)
AAWARLLQEHPNAGLSKGCFGLKLDRIGSMSGLGC (ends and bridges not checked; cysteine pairing not given here) [AAWARLLQEHPNA-CNP22],24 rel. to 1 uM CNP22 (100),76 rel. to 1 uM CNP22 (100)
AAWARLLQEHPNARGLSKGCFGLKLDRIGSMSGLGC (ends and bridges not checked; cysteine pairing not given here) [AAWARLLQEHPNAR-CNP22],36 rel. to 1 uM CNP22 (100),84 rel. to 1 uM CNP22 (100)
DLRVDTKSRAAWARGLSKGCFGLKLDRIGSMSGLGC [DLRVDTKSRAAWAR-CNP22],34 rel. to 1 uM CNP22 (100),101 rel. to 1 uM CNP22 (100)
GQPREPQVYTLPPSGLSKGCFGLKLDRIGSMSGLGC [GQPREPQVYTLPPS-CNP22 (IgG1(Fc) fragment)],23 rel. to 1 uM CNP22 (100),72 rel. to 1 uM CNP22 (100)
QEHPNARKYKGANKKGLSKGCFGLKLDRIGSMSGLGC (ends and bridges not checked; cysteine pairing not given here) [QEHPNARKYKGANKK-CNP22 (CNP37)],43 rel. to 1 uM CNP22 (100),97 rel. to 1 uM CNP22 (100)
GERAFKAWAVARLSQGLSKGCFGLKLDRIGSMSGLGC [GERAFKAWAVARLSQ-CNP22 (HSA fragment)],15 rel. to 1 uM CNP22 (100),87 rel. to 1 uM CNP22 (100)
GHHSHEQHPHGANQQGLSKGCFGLKLDRIGSMSGLGC [GHHSHEQHPHGANQQ-CNP22 (HRGP fragment)],16 rel. to 1 uM CNP22 (100),95 rel. to 1 uM CNP22 (100)
GQEHPNARKYKGANPKGLSKGCFGLKLDRIGSMSGLGC (ends and bridges not checked; cysteine pairing not given here) [GQEHPNARKYKGANPK-CNP22 (modified CNP37)],19 rel. to 1 uM CNP22 (100),61 rel. to 1 uM CNP22 (100)
GQEHPNARKYKGANQKGLSKGCFGLKLDRIGSMSGLGC (ends and bridges not checked; cysteine pairing not given here) [GQEHPNARKYKGANQK-CNP22 (modified CNP37)],60 rel. to 1 uM CNP22 (100),121 rel. to 1 uM CNP22 (100)
GQEHPNARKYKGANQQGLSKGCFGLKLDRIGSMSGLGC (ends and bridges not checked; cysteine pairing not given here) [GQEHPNARKYKGANQQ-CNP22 (modified CNP37)],9 rel. to 1 uM CNP22 (100),57 rel. to 1 uM CNP22 (100)
GQEHPNARKYKGANKKGLSKGCFGLKLDRIGSMSGLGC (ends and bridges not checked; cysteine pairing not given here) [GQEHPNARKYKGANKK-CNP22 (Gly-CNP37)],50 rel. to 1 uM CNP22 (100),98 rel. to 1 uM CNP22 (100)
PGQEHPNARKYKGANKKGLSKGCFGLKLDRIGSMSGLGC (ends and bridges not checked; cysteine pairing not given here) [PGQEHPNARKYKGANKK-CNP22 (Pro-Gly-CNP37)],49 rel. to 1 uM CNP22 (100),103 rel. to 1 uM CNP22 (100)
GAHHPHEHDTHGANQQGLSKGCFGLKLDRIGSMSGLGC [GAHHPHEHDTHGANQQ-CNP22 (HRGP fragment)],14 rel. to 1 uM CNP22 (100),77 rel. to 1 uM CNP22 (100)
"GQPREPQVYTGANQQGLSRGCFGLKLDRIGSMSGLGC [GQPREPQVYTGANQQ-CNP22, K4R (IgG1(Fc) fragment)]",2 rel. to 1 uM CNP22 (100),32 rel. to 1 uM CNP22 (100)
"GVPQVSTSTGANQQGLSRGCFGLKLDRIGSMSGLGC [GVPQVSTSTGANQQ-CNP22, K4R (HSA fragment)]",3 rel. to 1 uM CNP22 (100),35 rel. to 1 uM CNP22 (100)
GHKSEVAHRFKGANKKGLSKGCFGLKLDRIGSMSGLGC [GHKSEVAHRFKGANKK-CNP22 (HSA-CNP27)],51 rel. to 1 uM CNP22 (100),109 rel. to 1 uM CNP22 (100)
PGHKSEVAHRFKGANKKGLSKGCFGLKLDRIGSMSGLGC [PGHKSEVAHRFKGANKK-CNP22 (Pro-HSA-CNP27)],32 rel. to 1 uM CNP22 (100),107 rel. to 1 uM CNP22 (100)
"GQTHSSGTQSGANQQGLSRGCFGLKLDRIGSMSGLGC [GQTHSSGTQSGANQQ-CNP22, K4R (fibrinogen)]",12 rel. to 1 uM CNP22 (100),115 rel. to 1 uM CNP22 (100)
"GSTGQWHSESGANQQGLSRGCFGLKLDRIGSMSGLGC [GSTGQWHSESGANQQ-CNP22, K4R (fibrinogen)]",2 rel. to 1 uM CNP22 (100),33 rel. to 1 uM CNP22 (100)
SPKMVQGSGCFGLKLDRIGSMSGLGCKVLRRH (disulfide 10-26 (inferred)) [SPKMVQGSG-CNP17-KVLRRH (BNP tails)],25 rel. to 1 uM CNP22 (100),102 rel. to 1 uM CNP22 (100)
